Experimental data reported in paper PMC2635704.

Target: BjVIII, myotoxic Lys49-PLA2 from Bothrops jararacussu venom (Bothrops jararacussu)
Assay: tricine SDS-PAGE under non-reducing conditions

In the case of “BjVIII, myotoxic Lys49-PLA2 from Bothrops jararacussu venom (natural protein)”, the stoichiometry N is reported as 2.
